Biological target: T1, GST-PUB13 (Arabidopsis thaliana, UniProt Q9SNC6 1-660)
T1 construct: also called PUB13-GST; source: purified fusion protein from pGEX-6p-1; E. coli BL21 is named for the PUB13 construct in pGEX-6P-1 of the ubiquitination assay
T1 sequence (looked up): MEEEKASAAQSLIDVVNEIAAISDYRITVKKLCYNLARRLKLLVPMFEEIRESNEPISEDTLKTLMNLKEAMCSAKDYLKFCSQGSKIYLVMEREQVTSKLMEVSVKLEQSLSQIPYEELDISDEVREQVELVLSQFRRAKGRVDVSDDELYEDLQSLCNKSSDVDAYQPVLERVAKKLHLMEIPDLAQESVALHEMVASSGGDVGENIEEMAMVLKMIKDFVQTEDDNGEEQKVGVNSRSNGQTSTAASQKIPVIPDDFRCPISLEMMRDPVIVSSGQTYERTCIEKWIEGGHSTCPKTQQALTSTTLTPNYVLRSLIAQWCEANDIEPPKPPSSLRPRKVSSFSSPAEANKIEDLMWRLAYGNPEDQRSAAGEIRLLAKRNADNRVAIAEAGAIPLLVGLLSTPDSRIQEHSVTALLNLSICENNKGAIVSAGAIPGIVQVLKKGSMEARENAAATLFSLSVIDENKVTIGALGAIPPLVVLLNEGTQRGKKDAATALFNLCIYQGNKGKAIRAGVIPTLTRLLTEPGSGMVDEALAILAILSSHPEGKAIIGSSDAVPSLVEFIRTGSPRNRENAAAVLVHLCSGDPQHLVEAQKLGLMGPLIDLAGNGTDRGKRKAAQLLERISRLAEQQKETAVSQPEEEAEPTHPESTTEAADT
Test: pull-down; purified fusion proteins mixed, glutathione Sepharose beads 4 h at 4°C, five washes with 1x TBST, eluate blotted with anti-MBP
Conditions: both partners purified

B1: MBP-BON1 (natural protein, Arabidopsis thaliana, UniProt Q941L3 1-578, looked up)
chain: MGNCCSDVASGAGATAGVGGSGSSAALGATNDALDYYLKSKGFNGLFSQIELSFSASNLRDRDVLSKSDPMVVVYQKEKDATLSEVFRSEVVLNSLAPKWIKKFIVAYHFETVQTLVFRVYDVDTKFQNSREEMLKLDEQQFLGEATCALSEIITKSTRTSTLELKRKDGFAPQAQPHHGKLIIHAEESLASKISTEIVFRCSNLESKDLFSKSDPFLVVSKIVEHGTPIPVSKTEVRKNDLNPIWKPVFLSVQQVGSKDSPVIIECSDFNSNGKHSLIGKVQKSLSDLEKLHLAGQGINFSLPTGAGQNKVLKSQLFVDKFTETVHHTFLEYLASGFELNFMVAIDFTASNGNPRLPDSLHYIDPSGRLNAYQRAIMDVGEVLQFYDSDKRFPAWGFGARPIDAPVSHCFNLNGSSSYSEVDGIQGIMTSYTSALFNVSLAGPTLFGPVINAAAMIASASLAQGSRKYYVLLIITDGVITDLQETKDALVSASDLPLSILIVGVGGADFKEMEILDADKGERLESSSGRLASRDIVQFVALRDVQYGEISVVQALLAELPSQFLTYMRIRNMKPIPP
notes: source: purified fusion protein from pMAL-c4x
B1: binds.

From publication PMC12171143, “The Arabidopsis E3 ubiquitin ligase PUB13 synergistically interacts with BON1 to regulate plant flowering and immunity” (Frontiers in Plant Science, 2025)
